The text below walks through data of patent US20260132197A1 (NANJING LEGEND BIOTECH, published 2026).

Where a chain is given by its changes, count along the chain named. Numbers in names are those of the source. Bounds are passed on as bounds.

The target of test [1] is T1, Human CD47-C33G (human, UniProt Q08722 19-135).
T1 construct: also called CD47 mutein with C33G mutation
The test can be described thus: SPR, IgG captured, CD47 in flow; exp 4.

The target in test [2] is T2, wild type human CD47 (Acro Biosystems, cat. no. CD7-H5227) (human, UniProt Q08722 19-139).
T2 construct: Bought protein used as SPR analyte; also called Human CD47 wt; wild-type CD47
The test can be described thus: SPR, IgG captured, CD47 in flow; exp 4.

Test [3] concerns the target T1, Human CD47-C33G. The test can be described thus: SPR, IgG captured, CD47 in flow; exp 2.
The target of test [4] is T2, wild type human CD47 (Acro Biosystems, …). The test can be described thus: SPR, IgG captured, CD47 in flow; exp 2.
Test [5] deals with T1, Human CD47-C33G. The test can be described thus: SPR, IgG captured, CD47 in flow; exp 3.
For test [6], the target named is T2, wild type human CD47 (Acro Biosystems, …). The test can be described thus: SPR, IgG captured, CD47 in flow; exp 3.
In test [7] the target is T1, Human CD47-C33G. The test can be described thus: SPR, IgG captured, CD47 in flow; exp 1.
Test [8] concerns the target T2, wild type human CD47 (Acro Biosystems, …). The test can be described thus: SPR, IgG captured, CD47 in flow; exp 1.
The target of test [9] is T1, Human CD47-C33G. The test can be described thus: SPR, IgG captured, CD47 in flow; exp 1. The source holds these as a separate data set.
In test [10] the target is T1, Human CD47-C33G. The test can be described thus: SPR, IgG captured, CD47 in flow; exp 2. This is another data set of the same source.
Test [11] has as its target T1, Human CD47-C33G. The test can be described thus: SPR, IgG captured, CD47 in flow; exp 2; estimated, out of instrument limit.
Test [12] concerns the target T3, human CD47 on cells (SHP-77 tumor cells, human red blood cells, CCRF-CEM cells, human CD47 CHO-K1 stable cell … (human, UniProt Q08722 19-323)).
T3 construct: whole, on cells; also called RBC
The test can be described thus: flow cytometry on human CD47 CHO-K1 cells.

For test [13], the target named is T3, human CD47 on cells (SHP-77 tumor …). The test can be described thus: cell-based or functional assay.
Test [14] shares this target. The test can be described thus: flow cytometry on human RBCs; plateau not reached, not accurate.
The target in test [15] is T4, cynomolgus CD47 on CHO-K1 stable cell line (cynomolgus, UniProt A0A5F8AK49 19-323 (rhesus entry)).
T4 construct: whole, on cells; also called cynomolgus CD47/CHO-K1
The test can be described thus: flow cytometry on cynomolgus CD47 CHO-K1 cells.

The target of test [16] is T1, Human CD47-C33G. The test can be described thus: SPR, IgG captured, CD47 in flow; exp 4. The source holds these as a separate data set.
The target of test [17] is T2, wild type human CD47 (Acro Biosystems, …). The test can be described thus: SPR, IgG captured, CD47 in flow; exp 4. The source holds these as a separate data set.
Test [18] has as its target T3, human CD47 on cells (SHP-77 tumor …). The test can be described thus: flow cytometry on SHP-77 cells.
Test [19] addresses T1, Human CD47-C33G. The test can be described thus: SPR, IgG captured, CD47 in flow; exp 1. This is another data set of the same source.
Test [20] addresses T2, wild type human CD47 (Acro Biosystems, …). The test can be described thus: SPR, IgG captured, CD47 in flow; exp 1. This is another data set of the same source.
For test [21], the target named is T1, Human CD47-C33G. The test can be described thus: SPR, IgG captured, CD47 in flow; exp 3. This is another data set of the same source.
Test [22] concerns the target T2, wild type human CD47 (Acro Biosystems, …). The test can be described thus: SPR, IgG captured, CD47 in flow; exp 3. The source holds these as a separate data set.

B1: 108VH10 / 108VL10.M1 (antibody, V domains shown)
VH: EVQLVESGGGLVQPGGSLRLSCAASGYSFTHHWIHWVRQAPGKGLEWVAMIDPSDSETRLSQKFKDRFTISADTSKNTAYLQMNSLRAEDTAVYYCSRLGRYYFDYWGQGTLVTVSS
VL: DIQMTQSPSSLSASVGDRVTITCRASENVGTYISWYQQKPGKAPKLLIYGASNRYTGVPSRFSGSRSGTDFTLTISSLQPEDFATYYCGESYGHLYTFGQGTKVEIK
notes: 4D5-framework series; also called VH10 VL10.M1; straight-graft antibody
Regarding B1, the Kd worked out at 28 nM in [1]; 5.2 nM in test [2]; 43 nM in test [3]; 5.8 nM in test [4]; 36 nM in [5]; 6.1 nM in test [6]. The dissociation constant Kd turned out to be 34 nM in test [7] and 5.6 nM in [8]. Further, the koff in test [1] worked out at 0.003 s⁻¹; in [2] it was 0.0013 s⁻¹; in test [3] it was 0.0038 s⁻¹; in [4], 0.0016 s⁻¹; in test [5] it was 0.003 s⁻¹; in [6], 0.0014 s⁻¹. For the same molecule, the results for the off-rate (koff) in test [7] and in test [8] were 0.0034 s⁻¹ and 0.0013 s⁻¹, respectively. Moreover, the kon amounted to 110000 M⁻¹ s⁻¹ in test [1]; 240000 M⁻¹ s⁻¹ in [2]; 87000 M⁻¹ s⁻¹ in [3]; 280000 M⁻¹ s⁻¹ in [4]; 85000 M⁻¹ s⁻¹ in test [5]; 230000 M⁻¹ s⁻¹ in [6]. The values for the kon in [7] and in test [8] were 99000 M⁻¹ s⁻¹ and 230000 M⁻¹ s⁻¹, respectively. Moreover, in [9], the “fold drop of mono-valent binding affinity (reference not given; Table 2, experiment 1)” value is 34 fold.

B2: 108VH10.Mf / 108VL10.M1 (antibody, V domains shown)
VH: B1 VH with S61V, Q62D, K63S, F64V, D66G
VL: B1 VL
notes: 4D5-framework series; constant regions not restated for this series; also called VH10.Mf VL10.M1
In test [3], B2 yielded a Kd of 290 nM, an off-rate constant (koff) of 0.014 s⁻¹ and a kon of 49000 M⁻¹ s⁻¹. In [4], this molecule returned a Kd of 30 nM, an off-rate constant (koff) of 0.0071 s⁻¹ and a kon of 230000 M⁻¹ s⁻¹. In addition, in test [10], the “fold reduction of mono-valent binding affinity compared to 108VH10” value turned out to be 6.7 fold.

B3: 108VH10 / 108VL10.Mb (antibody, V domains shown)
VH: B1 VH
VL: B1 VL with G50A
notes: 4D5-framework series; constant regions not restated for this series; also called VH10 VL10.Mb
In the case of B3, in test [3], the Kd amounted to 330 nM, the koff was 0.016 s⁻¹ and the kon was found to be 47000 M⁻¹ s⁻¹. In [4], the Kd amounted to 38 nM, the koff stood at 0.011 s⁻¹ and the kon is 290000 M⁻¹ s⁻¹. For the same molecule, the “fold reduction of mono-valent binding affinity against the straight-graft antibody” value in [10] was found to be 7.7 fold.

B4: 108VH10.Mc / 108VL10.M1 (antibody, V domains shown)
VH: B1 VH with H35S
VL: B1 VL
notes: 4D5-framework series; constant regions not restated for this series; also called VH10.Mc VL10.M1
Turning to B4, in test [3], the kon was 61000 M⁻¹ s⁻¹. In [4], this molecule came in with a dissociation constant (Kd) of 21 nM, a koff of 0.0054 s⁻¹ and an on-rate (kon) of 250000 M⁻¹ s⁻¹. Also, in test [11], the dissociation constant Kd is over 1600 nM and the off-rate constant (koff) was over 0.1 s⁻¹.

B5: 108VH5.M22 / 108VL1.M5 (antibody, human IgG4 S228P, kappa, V domains shown)
VH: EVQLVQSGAEVKKPGASVKVSCKASGYTFTHHWMHWVRQAPGQGLEWMGMIDASDIETRYAQKFQGRVTMTRDTSTSTVYMELSSLRSEDTAVYYCARLGRYYFDYWGQGTLVTVSS
VL: EIVLTQSPATLSLSPGERATLSCRASQSVSSYLAWYQQKPGQAPRLLIYGASNRATGIPARFSGSGSGTDFTLTISSLEPEDFAVYYCGESYGHLYTFGGGTKVEIKR
notes: Full-length IgG4 (S228P), kappa; also called VH5.M22 VL1.M5
With B5, the EC50 amounted to 3.6 nM in test [12], 10.1 nM in test [14], 3.6 nM in test [15] and 8.4 nM in test [18]. Moreover, the “CCRF-CEM phagocytosis EC50” value in [13] came to 0.37 nM. In addition, in test [13], the “CCRF-CEM phagocytosis, Phagocytosis (%)” value was 59.4%. The dissociation constant (Kd) in [16] came out at 35 nM; in test [17], 6.1 nM. In addition, the koff in test [16] is 0.0068 s⁻¹; in test [17] it was 0.0029 s⁻¹. Moreover, the association rate constant (kon) worked out at 200000 M⁻¹ s⁻¹ in test [16] and 480000 M⁻¹ s⁻¹ in test [17]. Also, in [18], the “Fitted Maximal MFI” value was determined as 41600 MFI.

B6: 108VH4.M4-VL1.M1 (antibody, V domains shown)
VH: EVQLVQSGAEVKKPGSSVKVSCKASGYSFTHHWIHWVRQAPGQGLEWMGMIDASDSETRLSQKFKDRVTITADKSTSTAYMELSSLRSEDTAVYYCARLGRYYFDYWGQGTTVTVSS
VL: EIVLTQSPATLSLSPGERATLSCRASENVGTYISWYQQKPGQAPRLLIYGASNRYTGIPARFSGSGSGTDFTLTISSLEPEDFAVYYCGESYGHLYTFGGGTKVEIK
notes: also called original humanized 108C10A6 antibody
With B6, the Kd was determined as 1.5 nM in test [1]; 0.38 nM in test [2]; 1.8 nM in [19]; 0.4 nM in test [20]; 2.6 nM in test [3]; 0.47 nM in [4]. The Kd in [21] was found to be 1.9 nM; in test [22] it was 0.41 nM; in test [5] it was 1.9 nM; in test [6], 0.41 nM; in test [7], 2.1 nM; in test [8], 0.39 nM. Besides, the Kd was determined as 1.5 nM in test [16] and 0.38 nM in test [17]. In addition, the koff in test [1] amounted to 0.00086 s⁻¹; in test [2] it was 0.00041 s⁻¹; in test [19], 0.00087 s⁻¹; in test [20], 0.00042 s⁻¹; in [3], 0.00097 s⁻¹; in test [4], 0.00046 s⁻¹. In addition, the off-rate constant (koff) amounted to 0.00084 s⁻¹ in test [21]; 0.00041 s⁻¹ in [22]; 0.00084 s⁻¹ in test [5]; 0.00041 s⁻¹ in test [6]; 0.00087 s⁻¹ in [7]; 0.00039 s⁻¹ in test [8]. Also, the koff in [16] worked out at 0.00086 s⁻¹; in test [17], 0.00041 s⁻¹. Besides, the on-rate (kon) in test [1] stood at 570000 M⁻¹ s⁻¹; in [2], 1.1e+06 M⁻¹ s⁻¹; in test [19], 480000 M⁻¹ s⁻¹; in test [20], 1.1e+06 M⁻¹ s⁻¹; in test [3] it was 380000 M⁻¹ s⁻¹; in test [4], 980000 M⁻¹ s⁻¹. The kon in [21] amounted to 430000 M⁻¹ s⁻¹; in [22], 1e+06 M⁻¹ s⁻¹; in [5] it was 430000 M⁻¹ s⁻¹; in [6] it was 1e+06 M⁻¹ s⁻¹; in test [7] it was 410000 M⁻¹ s⁻¹; in test [8], 1e+06 M⁻¹ s⁻¹. Moreover, the on-rate constant (kon) is 570000 M⁻¹ s⁻¹ in test [16] and 1.1e+06 M⁻¹ s⁻¹ in [17]. For the same molecule, the 50% effective concentration (EC50) was 2.6 nM in test [12], 7.6 nM in [14], 4.3 nM in test [15] and 5.5 nM in [18]. In test [18], the “Fitted Maximal MFI” value is 46600 MFI.
